Tests used:
[1] = Solid phase assay for lead: protein on nitrocellulose with chromogenic dye; conditions: combined results, various buffers, pH, salts and dyes
Procedure: A solid phase assay for the detection of lead was also developed using one or more synthetically produced lead-binding proteins. Both TB4 and ACBP and the various mutants that have been generated from them can be used in this assay. The experiment is performed by binding the protein to a solid surface support, such as nitrocellulose paper, cotton, glass microfibers, or polystyrene beads using, for example, methods described herein. Then the sample to be tested, such as saliva or blood, is placed onto the surface and allowed to react with the protein. After washing with buffer, or example a neutral non-chelating buffer to remove any unreacted material, the sample is treated with a ligand that can detect a lead-leading binding protein complex, for example, a ligand that can cause a color chance upon detecting a lead-protein complex. Examples of such ligands include, sodium sulfide and sodium rhodizonic acid. Furthermore, the concentration of the lead in the sample being tested may be determined by the intensity of the spot produced upon binding of the dye. […]
As a control, the assay was tested using solutions containing several different buffers, pH conditions, and salts for reaction with the sodium sulfide and sodium rhodizonic acid dyes used. […] The pH was determined empirically for rhodizonic acid over a range of pH 4 to pH 8. […]

[2] = lead binding; Quintanilla-Vega 1995, Smith 1998; read-out: dissociation constant (Kd) of high affinity lead-binding region; cited from earlier work

B1: acyl-CoA binding protein (protein, listed as Homo sapiens)
chain: MSQAEFEKAAEEVRHLKTKPSDEEMLFIYGHYKQATVGDINTERPGMLDFTGKAKWDAWNELKGTSKEDAMKAYINKVEELKKKYGI
[1]
  performance of solid phase lead detection assay: works well under various conditions
[2]
  Kd: ~1 nM
